The values that follow come from publication PMC4046817.

Common to all, as to conditions: EMSA/footprinting in LrpB binding buffer (ref. 27); composition, pH and temperature not given
Data set [1] deals with T1, Ss-LrpB (Sulfolobus solfataricus P2?) (UniProt Q7LX67).
T1 sequence: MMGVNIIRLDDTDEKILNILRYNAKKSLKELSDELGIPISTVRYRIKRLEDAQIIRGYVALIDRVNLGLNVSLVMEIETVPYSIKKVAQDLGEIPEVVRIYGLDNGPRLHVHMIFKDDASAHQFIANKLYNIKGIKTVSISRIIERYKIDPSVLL
As to the kind of experiment: EMSA.

Data set [2] deals with T1, Ss-LrpB (Sulfolobus solfataricus P2?). The experiment in a line: in-gel Cu-OP footprinting.
Data set [3] deals with Ss-LrpB (Sulfolobus solfataricus P2?). The experiment in a line: EMSA.

Regarding “TGGAGAAGATGACGAAATGGTATTAAAGGAACATTCAATTACCTTATGTGATACAATAAAAAGGATGGGAGGGGATTGCGAGTTGCATATAATTCCGAAAATGAAGCACACACCTTTAGGGCAACAGTATCAAACAATTTGGAGTATAATTGAGGATTGGATAAAGAGGAATAGTTCTAGTTTTTAACCAGTTTGTGCCCAGTTCTCATACCTCATGAGTTCATTTCTACCCTTATCTTTAGCCACAATGTCTAGA (double strand) [Sso1433 fragment]”, the binding result in data set [1] is recorded as “binds”.
In the case of “CCTTTACTCTTCATGCGACCAATTTTAGTTGTAATTAATTTAACAATTTCTGGTCGCAAGGATTTTATGTTAAATTGAAACATTGGGTATCATTTATAAACGTTCAATTATTATAGAAAGATTCGTTTCGGTCGCATTGAGACTCGAACTTTCACACTTTTAAACAACTTCATAAAAACGAAGTTTGAAGTTCTCTATTTGATAATAATGTTTCACTGATTTCGTATCATATCGAAAAATATTTTTTATCTCTTATCGCTCTCCTTTCATC (double strand) [CRISPR4 (CRISPR B leader) fragment]”, in data set [1], the Kd came out at 63 nM. Moreover, the binding entry in data set [2] is recorded as “binds”.
Consider “AGTATCTCGTTAATAACATCGTCTTTGTTACCTTCAAAGAACTCTGCATATATTATTTCGTCGTAAAGAATTAGATATCCTTTTGCACTAGTCAGCAGAGAATATTTATATCCTCTACATCCCTCACAATAACCTCTAACCTCTTTAACTAGTAAATGTTCAATCACAGATAGTTTAATATTTCCTTTTTCAATTATTTCTATATCATTATCTTTTTTAACTGATAATCTCTTAGCTAAATAATAAAGTGCGACCTGA (double strand) [Ssot36 fragment]”, for which the binding result in data set [1] is recorded as “no binding”.
Take “AATCTTTCATTCCTCCTCTTATATGGATTATTACTGGTTTGTTTTCTTTTTCGGCTATTTGCAAAAATTTCTCCAGAACTTCTATTTGTTTTTTCCTAAGATCCTCGTCTTTTATCCAAAAGTAATCTAAACCGACTTCACTTATTATCTTCCCATACCTAGTTAATTCCAAACACTTATCAATCTCATTAACCTTATCCTTTACAAATTCTGGATG (double strand) [Sso0046 fragment]”: in data set [1], the binding result was “no binding”.
Regarding “CGCATTAGAAGTAAAGAACGTAAATACTATGGCAGGAGTGTTATTACCAGCAAGGAACTTGGCATTAGCTAGGGAAATGGGGGCCGATGCGGTAGTTTCAGCTTGTCCTGGTTGTCACTATTCCTTATCTAGAACTCAATATTATCTGACTAAATACCCCAAATTAAGAGAAAAGACTAATATGTATTTAGAAAAAATGGGTACTAAGAATTATGATCTAAAGTTAATGCTAGTTCACGCTGTTGAATATATTTACAATA (double strand) [Sso1135 fragment]”, the binding result in data set [1] is listed as “binds”.
Regarding “ATATGTATATTCAAGCCATTTAGATGAGATAAGGAAAAATAAAGAATTCTATGATATGATTGCAGAGATACTACAAAGGTATTACAAAAAAATAGGCATAGAGAATGTGAATCAGTTGATACTAACTACTATAAAATAGTTCGTATGTCGAACCTTTCTTTACCGAATTCATTATATATCC (double strand) [Sso6904 fragment]”, in data set [1], the binding result is “no binding”.
In data set [3], CRISPR4 (CRISPR B leader) fragment gave a Kd of 63 nM.
As for Sso0049 Box 1 fragment, the Kd in data set [3] was determined as 150 nM. This Kd is about 2.4-fold higher than that of the substance before.
